Experimental findings from patent publication US20240400687A1 (Regeneron, published 2024) are described below.

Assay [1] has as its target T1, mouse PD1 (mPD1) (mouse, UniProt Q02242 25-288).
T1 construct: whole, on cells; also called murine PD1
T1 sequence (looked up): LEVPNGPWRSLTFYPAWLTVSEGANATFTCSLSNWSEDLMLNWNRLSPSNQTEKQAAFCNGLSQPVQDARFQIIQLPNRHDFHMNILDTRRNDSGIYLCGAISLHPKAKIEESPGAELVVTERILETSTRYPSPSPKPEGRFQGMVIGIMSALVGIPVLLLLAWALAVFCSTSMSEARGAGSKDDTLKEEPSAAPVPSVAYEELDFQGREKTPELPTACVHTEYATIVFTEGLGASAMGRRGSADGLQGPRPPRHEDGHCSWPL
Nature of the assay: flow cytometry on Jurkat/mPD1 cells. Here is the method:
Cells (HEK 293, MC38 over-expressing mCD20, or Jurkat over-expressing mPD1) were resuspended in FACS wash (PBS with 1% FBS) at 1×10⁶ cells/mL. The staining was performed in 1×10⁵ cells per well. The antibodies were diluted with a ratio of 1:5 from a starting concentration of 1.3×10⁻⁰⁷ M. The diluted antibodies were then added into the wells containing cells. Cells were stained for 30 min at 2-8° C. and washed twice with FACS wash buffer. APC-conjugated goat anti-human IgG (Jackson Immuno Research, 109-607-003, 1:400) or AF647-conjugated goat anti-mFc Fab (Jackson Immuno Research, 115-607-185, 1:400) was added to stain the cells for 30 min at 2-8° C. Following washing, cells were fixed in 2% paraformaldehyde for 30 min at 2-8° C. After two washes, stained cells were analyzed using BD LSRFortessa™ FACS instrument. The results were analyzed by FlowJo. FSC/SSC gates were used to select mononuclear cells.
In general terms: In flow cytometry, cells or beads pass a laser one at a time.

In assay [2] the target is T1, mouse PD1 (mPD1). Kind of assay: cell-based or functional assay.

B1: 18B12-scFvFc (scFv, V domains shown)
VH: QVQLQQPGAELVRPGTSVKLSCKASGYTFTSYWMHWIKQRPGQGLEWIGVIDPSDNYTKYNQKFKGKATLTVDTSSSTAYMQLSSLTSEDSAVYFCAREGYYGSSPWFAYWGQGTLVTVSS
VL: QIVMSQSPAILSASPGEKVTMTCRARSSVSYIHWYQQKPGSSPKPWIYATSNLASGVPGRFSGSGSGTSYSLTITRVEAEDAATYYCQQWSSKPPTFGGGTKLEIK
Consider B1, for which the binding result in assay [1] is “no binding”.

B2: 1B12IgG1EN (antibody)
heavy 1: QVQLQQPGAELVRPGTSVKLSCKASGYTFTSYWMHWIKQRPGQGLEWIGVIDPSDNYTKYNQKFKGKATLTVDTSSSTAYMQLSSLTSEDSAVYFCAREGYYGSSPWFAYWGQGTLVTVSSASTKGPSVFPLAPSSKSTSGGTAALGCLVKDYFPEPVTVSWNSGALTSGVHTFPAVLQSSGLYSLSSVVTVPSSSLGTQTYICNVNHKPSNTKVDKKVEPKSCDKTHTCPPCPAPEAEGAPSVFLFPPKPKDTLMISRTPEVTCVVVDVSHEDPEVKFNWYVDGVEVHNAKTKPREEQYNSTYRVVSVLTVLHQDWLNGKEYKCKVSNKALPSSIEKTISKAKGQPREPQVYTLPPCRDELTKNQVSLWCLVKGFYPSDIAVEWESNGQPENNYKTTPPVLDSDGSFFLYSKLTVDKSRWQQGNVFSCSVMHEALHNHYTQKSLSLSPGK
heavy 2: QVQLQQPGAELVRPGTSVKLSCKASGYTFTSYWMHWIKQRPGQGLEWIGVIDPSDNYTKYNQKFKGKATLTVDTSSSTAYMQLSSLTSEDSAVYFCAREGYYGSSPWFAYWGQGTLVTVSSASTKGPSVFPLAPSSKSTSGGTAALGCLVKDYFPEPVTVSWNSGALTSGVHTFPAVLQSSGLYSLSSVVTVPSSSLGTQTYICNVNHKPSNTKVDKKVEPKSCDKTHTCPPCPAPEAEGAPSVFLFPPKPKDTLMISRTPEVTCVVVDVSHEDPEVKFNWYVDGVEVHNAKTKPREEQYNSTYRVVSVLTVLHQDWLNGKEYKCKVSNKALPSSIEKTISKAKGQPREPQVCTLPPSRDELTKNQVSLSCAVKGFYPSDIAVEWESNGQPENNYKTTPPVLDSDGSFFLVSKLTVDKSRWQQGNVFSCSVMHEALHNRFTQKSLSLSPGK
light: QIVMSQSPAILSASPGEKVTMTCRARSSVSYIHWYQQKPGSSPKPWIYATSNLASGVPGRFSGSGSGTSYSLTITRVEAEDAATYYCQQWSSKPPTFGGGTKLEIKRTVAAPSVFIFPPSDEQLKSGTASVVCLLNNFYPREAKVQWKVDNALQSGNSQESVTEQDSKDSTYSLSSTLTLSKADYEKHKVYACEVTHQGLSSPVTKSFNRGEC
notes: IgG, mCD20 x mCD20, 145.3 kDa; also called Molecule ID M
As to B2, the “Max % inhibition, luciferase bioassay, 1 nM CD3 bsAb” value in assay [2] was 19%. Also, the binding result in assay [1] is on record as “no binding”.
